From the nanobody polyreactivity screen of Harvey et al. (2022)

Assay: yeast display, Sf9 membrane polyspecificity reagent, FACS + sequencing; frameworks hold sequencing errors
How it was run: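 Galactose-induced (36–48 hours) yeast carrying a synthetic nanobody display library were exposed to 10% biotinylated, detergent-solubilized Sf9 membrane reagent at 4 °C for 1 hour. FACS followed streptavidin microbead enrichment, using low and high (top ~1%) gates for expression (anti-HA) and reagent binding (streptavidin). Colony PCR, MiSeq 2 × 250 sequencing and CDR-length filtering followed. Labels for polyreactivity reflect the gate of origin.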

| Sequence | polyreactivity (PSR sort gate) |
| --- | --- |
| QVQLVESGGGLVQAGGSLRLSCAASGRIFRGNAMGWFRQAPGKERELVASISTSGVRTFYADSVKGRFTISRDNAKNTVYLQMNSLKPEDTAVYDCNKRDRYRMYGFNYWGQGTQVTVSS | high polyreactivity |
| QVQLVESGGGLVQAGGSLRLSCAASGISFWDYAMGWYRQAPGKERELVAAISSGGSTYYADSVKGRFTISRDNAKNTVYLQMNSLKPEDTAVFYCNAEQRYYRKVKGNYWGQGTQVSVSS | high polyreactivity |
| QVQLVESGGGLVQAGGSLRLSCAASGLISRINAMGWYRQAPGKERELVAAISSGGSTNYADSVKGRFTISRDNAKNTVYLQMNSLKPEDTAVYYCAAGYIRKYSAFRYNYWGQGTQVTVSS | high polyreactivity |
| QVQLVESAGGLVQAGGRLRLSCAASGFIFTTNAMGWYRQAPGKEREFVAAITRSGGSTYADSVKGRFTISRDNAKNTVYLQMNSLKPEDTAVYYFNADWAGVDTSYEYDYWGQGTQVTVSS | low polyreactivity |
| QVKLVESGGGLVQAGGSLRLSCSASGSIITHNTMVWYRQAPGKERELVASIDSGASTNYADSVKWRFTISRDNAKNSVYLLMNSLKPEDTAVYYCAADDANFRYRDDYWGQGTQVTVSS | low polyreactivity |
| QVQLVESGGGLVQAGGSLRLSCAASGRTFLRYTMGWYRQAAGKERELVAVITNGGTRTYYADSVKGRFTISRDNAKNTVYLQMNSLKPEYTAVYYCAARVRYTANYDYWGQGTQVTVSS | high polyreactivity |
| QVQLVESGGGLVQAGGSLRLSCASSGYIFEKYAMGWYRQAPGKERELVAAITVTGASTYYADSVKGRFTISRDNAKNTVYLQMNSMNPEDTAVYYCAAKTLSVGYVDPDYGRDYWGQGTQVTVSS | low polyreactivity |
| QVPLVESGGGLVQAGGSLSLSCAASGNIFPSYVMGWYSQAPGKERELVAAITGNGGSTYYADSVKGRFTISRDNAKNTVYLQMNSLTAEDTEVYYCATSAPRLLRYDSSSSPSYDNWGQGTKVTVSS | low polyreactivity |
| QVQLVESGGGLVQAGGSLRLSCAASGFIFGTYAMGWYRQAPGKERELVAAISQSGGRTYYADSVKGRFTISRDNAKNTVYLQMISLKPEDTAVYYCAARHRPTGISTGYDYWGQGTQVTVSS | high polyreactivity |
| QVQLVESGGGLVQAGGSLRLSCAASGRIFTTYAMGWYRQAPGKERELVAAISRSGGSTYYADSVKGRFTISRDNAKNTVYLQMNSLKTEDTAVYYCAAVPTSNSFRSSFYYWGQGTQVTVSS | high polyreactivity |
| QDQLVESGGGLVQAGGSLRLSCAASGRIFYLNAMGWYRQAPGKERELVAAINTSGDSTYYADSVKGRFTISRDIAKNTVYLQMNSLKQEDTAVYYCAAYVIGPDQFIYDYWGQGTQVTVSS | low polyreactivity |
| QVQLVESGGGLVQAGGSLRLSCAASGRTFRFYAMGWYRQAPGKERELVAAITSGGSTTYADSVKGRFTISRDNAKNTVYLQMNSLKPEDTAVYYCNADRARAYDYWGQGTQVTVSS | high polyreactivity |
| QDQLVESGGGLVQAGGRLRLSCAASGSTFWWYDMGWYRKAHGKDRELVAAINWSGGSTYYADSVKGRFTISRDNAKNTVYLQMNSLKPEDTAVYYCAKVGRETEYDYWGQGTQVTVSS | high polyreactivity |
| QVQLVESGGGLVQAGGSLRLSCAASGRIFKYYDMGWYRQAPGKERELVARISSGGGRTYYADSVKGRFKISRDNAKNTVYLQMNSLKPEDTAVYYCAADPPASYHTWYGYWGQGTQVTVSS | high polyreactivity |
| QVQLGESGGGLVQAGGSLRLSCAASGRIFRNNAMGWYRQAPGKERELVAAITWSGGSTYYADSVKGRFTISRDNAKNTVYLQMNSLKPEDTAVYYCNAGRGYKYSYTYDYWGQGTQVTLSS | low polyreactivity |
| QVQLVESGGGLVQAGGSLRLSCAASGSTLRYYAMGWYRQAPGKERELVAAISTGGSTYYADSVKVRFTISRDNAKNTVYLQMNSLKAEDTAVYYCAAEKKTKTYRYDYWGQGTQVTVSS | low polyreactivity |
| QVQLVESGGGLVQAGGSLRLSCAASGSIFRGYTMGWYRQAPGKERELVAAISTRGGSTYYADSVKGRFTISRDNAKNTVYLQMNSLKPEDTAVYYCNARSRGRASGYDYWGQGTQVTVSS | high polyreactivity |
| QVQLVESGGGLVQAGGSLRLSCAASGRIFASYAMGWYRQAPGKERELVAAISAGGGSRTYYADSVKGRFTISRDNAKNTVYLQMNSLKPEDTAVYYCNTANSWLRQYYYWGQGTQVTVSS | high polyreactivity |
| QVQLVESGGGLVQAGGSLRLSCAASGFTFTRNTMGWYRQAPGKERELVADINWDDGSTNYADSVKGRFTISRDNAKNTVYLQMNSLKPEDTAVYYCAADYYFYYLYPSSNLYNYWGQGTQVTVSS | low polyreactivity |
| QVQHVESGGGLVQPGGSLRLSCAASGNAMGWYRQAPGKERELVASINRSGGRTYYADSVKGSYTISRDNAKNTVYLQMNSLKPEDTAVYYCAARPHYDSDYWGQGTQVTVSS | low polyreactivity |
| QVQLVESGGGLVQAGGSLRLSCAASGSTLGYNAMGWYRQATGKERELVAGISRNGGSTFYADSVKGRFTISRDYAKYTLYLQMNSLKPEDTAVYYCARYYTHSGGFRVRIYYYWGQATQVTVSS | low polyreactivity |
